For assay [1], the target named is SARS-CoV-1 S protein expressed on ExpiCHO cells (SARS-CoV-1, UniProt P59594 14-1255). The assay can be described thus: flow.
Assay [2] has as its target SARS-CoV-1 RBD (Sino Biological) (SARS-CoV-1, UniProt P59594 306-527). Nature of the assay: BLI. For orientation: BLI is a label-free optical method that tracks binding on a fibre tip over time.
The target in assay [3] is SARS-CoV-2 Spike (S) protein, strain BetaCoV/Wuhan-Hu-1/2019, expressed on ExpiCHO cells (UniProt P0DTC2 14-1273). Nature of the assay: flow.

B1: SARS-CoV-2 S303 mAb (antibody, V domains shown)
VH: EVQLVESGGGLVKPGGSLRLSCAASGFTFLTYSMNWVRQTPGKRLQWVSAISGSGGATYYADSVKGRFTISRDNSKNTLYLQMNTVTADDTAIYFCARERDDIFPMGLNAFDIWGQGAMVIVSS
VL: DIQMTQSPSTLSASVGDRVTITCRASQSISNWLAWYQQKPGKAPKLLIYKASSLESGVPSRFSGSGSGTEFTLTISSLQPDDSATYYCQQYDTYSWTFGQGTKVEIK
As to B1, the EC50 (in general, the concentration giving half of the maximal effect) in assay [1] came out at 1.06 ng/mL. In addition, the Kd (as a rule, a measure of binding affinity in units of concentration) in assay [2] was 869 pM.

B2: SARS-CoV-2 S310 mAb (antibody, V domains shown)
VH: QVQLVQSGAELKKPGSSVKVSCKASGGTFNSYSFNWVRQAPGQGLEWLGGIIPVLGTSNYAQKFQGRVAVTADEFTTTAYMELSSLRSEDTAVYYCATRTYDSSGYRPYYYGLDVWGQGTPVTVSS
VL: QSALTQPASVSGSPGQSITISCTGTSSDVGSYNLVSWYQQRPGKAPELMIYEVTKRPSGLSNRFSGSKSGNTASLTISGLQAEDEADYYCCSYAGSDTVIFGGGTKVTVL
On to B2, for which a half-maximal effect in assay [1] (EC50) was put at 254 ng/mL.

B3: SARS-CoV-2 S304 mAb (antibody, V domains shown)
VH: EVQLVESGGGLVQPGGSLRLSCAASGFTFSSYDMHWVRQTTGKGLEWVSTIGTAGDTYYPDSVKGRFTISREDAKNSLYLQMNSLRAGDTAVYYCARGDSSGYYYYFDYWGQGTLLTVSS
VL: DIQMTQSPSSLSAAVGDRVTITCRASQSIGSYLNWYQQKPGKAPKLLIYAASSLQSGVPSRFSGSGSGTDFTLTISSLQPEDFAIYYCQQSYVSPTYTFGPGTKVDIK
The molecule B3 yielded an EC50 in assay [1] of 11.4 ng/mL. Against the preceding molecule, the EC50 is about 22-fold lower.

B4: SARS-CoV-2 S306 mAb (antibody, V domains shown)
VH: QVQLVQSGAEVKKPGASVKVSCKASTYTFTSFGISWVRQAPGQGLEWMGWITTYSGDTNYAQKFQGRVTMTTDTSTNTAYMELRSLRSDDTAVYYCASDYFDSSGYYHSFDYWGQGTLVTVSS
VL: EIVLTQSPDTLSLSPGERATLSCRASQSVSSYLAWYQQRPGQAPRLLIYDASKRATGIPARFSGSGSGTDFTLTISSLEPEDFAVYYCQQRSNWPPGCSFGQGTKVEIK
With B4, the EC50 in assay [1] was determined as 20.8 ng/mL; in assay [3], 1.42 ng/mL.

B5: SARS-CoV-2 S315 mAb (antibody, V domains shown)
VH: EVQLVESGGGLVQPGGSLRLSCAASGFTFSNYWMTWVRQAPGKGLEWVANIKQDGSEKYYVDSVKGRFTISRDNAKNSLYLQMNSLRAEDTAVYYCARDLWWNDQAHYYGMDVWGQGTTVTVSS
VL: SYELTQPPSVSVSPGQTARITCSGDAFPNQYAYWYQQKPGQAPVMLIYKDSERPSGIPERFFGSSSGTTVTLTIRGVQAEDEADYYCQSADSSGTVFGGGTKLTVL
On to B5, for which, in assay [1], the EC50 came out at 7.59 ng/mL.

The values are drawn from patent US20210261650A1 (published 2021).
